Measurements: patent US11098109B2, “Single-chain variable fragment anti-CD133 antibodies and uses thereof” (REGENTS OF THE UNIVERSITY OF MINNESOTA, priority 2010, dated 2021)

T1: CD133 (Homo sapiens, UniProt O43490)
T1 construct: endogenous in cells
T1 sequence (O43490 20-865): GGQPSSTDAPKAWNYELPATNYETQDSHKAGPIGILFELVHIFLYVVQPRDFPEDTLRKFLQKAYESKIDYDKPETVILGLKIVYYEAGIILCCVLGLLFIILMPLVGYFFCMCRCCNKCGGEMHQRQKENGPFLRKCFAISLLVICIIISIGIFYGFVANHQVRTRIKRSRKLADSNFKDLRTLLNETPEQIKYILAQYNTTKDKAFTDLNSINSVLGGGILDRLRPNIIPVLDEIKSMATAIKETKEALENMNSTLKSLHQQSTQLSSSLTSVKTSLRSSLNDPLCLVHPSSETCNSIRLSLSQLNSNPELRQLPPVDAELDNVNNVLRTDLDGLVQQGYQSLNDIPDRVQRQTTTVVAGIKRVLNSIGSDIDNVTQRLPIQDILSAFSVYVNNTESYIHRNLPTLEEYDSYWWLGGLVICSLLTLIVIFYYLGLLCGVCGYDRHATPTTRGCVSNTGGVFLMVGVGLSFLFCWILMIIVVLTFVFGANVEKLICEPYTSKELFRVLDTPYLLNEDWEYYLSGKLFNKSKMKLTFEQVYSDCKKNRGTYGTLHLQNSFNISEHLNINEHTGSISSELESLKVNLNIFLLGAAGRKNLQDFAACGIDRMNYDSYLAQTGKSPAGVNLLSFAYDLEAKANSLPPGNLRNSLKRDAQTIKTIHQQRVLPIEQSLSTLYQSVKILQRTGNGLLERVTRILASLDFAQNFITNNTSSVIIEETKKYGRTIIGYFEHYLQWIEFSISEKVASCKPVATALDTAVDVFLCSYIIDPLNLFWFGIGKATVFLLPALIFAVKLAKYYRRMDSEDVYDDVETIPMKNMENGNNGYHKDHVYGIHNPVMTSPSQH


Tests used:
CD133 [1] = target: T1, CD133; experiment: Flow cytometry of carcinoma lines with FITC-labeled anti-CD133 scFv; format: binding
Experimental: We detected about 5% CD133 cells/95% CD133-cells in the various carcinomas that we examined. […] The anti-CD133 scFV was labeled with FITC and then standard flow cytometry was performed. The levels of CD133 expression (4-7.1%) are in agreement with values reported values. CaCo-2 colorectal carcinoma is a cell line known to express high levels of CD133+ cells so we included it as a positive control. Anti-CD45-FITC and anti-CD19 FITC are negative controls that preferentially recognize hematopoietic cells.
CD133 expression on UMSCC-11B cells on head and neck cancer cells. CD133 expression was measured on the UMSCC-11B cell line using flow cytometery. Cells were reacted with anti-CD133scFV-FITC for 30 minutes in the dark on ice. Cells were then washed 3× using saline and studied using a flow cytometer (FACScanto™ II, BD Biosciences, Franklin Lakes, N.J.). The blank (untreated cells) was used to establish the gate of non-positive cell activity. CD133 was expressed on both head and neck cancer cell lines, NA and UMSC-11B, at 5.9% and 6% respectively (Table 13). The Caco-2 colorectal carcinoma was included as a positive control cell line since it known to overexpress CD133. Controls included cells reacted with anti-EpCam-FITC, anti-CD45-FITC, and anti-CD19-FITC. Expression of CD45 and CD19 is mostly restricted to normal malignant hematopoietic cells.

CD133 [2] = target: T1, CD133; experiment: Western blot screening of hybridoma supernatants on Caco-2 lysates; format: binding; conditions: CD133^+ Caco-2 cell lysates
Experimental: FIG. 2: Analysis of the newly generated CD133 hybridoma. Supematants of hybridoma clones were tested as a primary antibody in western blot (A) and Immunofluorescence (B) assays. Pre-immunized serum (-ve) or post immune anti sera (a.s.) served as controls. For western blot, Caco-2 lysates normalized for protein concentration were loaded onto a SDS-PAGE gel, resolved, blotted onto a nitrocellulose membrane and cut into strips. Each strip was probed with supernatant from the identified hybridoma. Membrane in Lane 1 was probed with a commercially available antibody (ab 19898, Abcam) and served as an additional positive control. For immunofluorescence, Caco-2 cells were fixed and immunostained with the hybridoma supernatants. A commercially available antibody (293C3, Militenyi) was used as additional positive control. Scale bars in the panel represent 200 micrometers. Supernatant of Hybridoma Clone 7 was used in the immunohistochemical analysis of primary glioblastoma and kidney tissue (C).
Caco-2 cells were lysed in RIPA buffer (Thermo Scientific, Waltham. Mass.) and centrifuged at 10,000 rpm and 4° C. to remove debris. The protein concentration of cell lysates was measured using BCA protein assay kit (Thermo Scientific, Waltham, Mass.), with bovine serum albumin as the standard. […]

| Molecule | % Positive Cells, CD133+ (CD133 [1]; BT474, breast) | % Positive Cells, CD133+ (CD133 [1]; Caco-2, colon, positive control line, listed as anti-CD133 scFV) | % Positive Cells, CD133+ (CD133 [1]; Caco-2, colon, positive control line, listed as anti-CD133scFV-FITC) | % Positive Cells, CD133+ (CD133 [1]; MDA-MB231, breast) | % Positive Cells, CD133+ (CD133 [1]; MDA-MD468, breast) | % Positive Cells, CD133+ (CD133 [1]; MiaPaCa-2, pancreas) | % Positive Cells, CD133+ (CD133 [1]; NA, head & neck) | % Positive Cells, CD133+ (CD133 [1]; SKBR3, breast) | % Positive Cells, CD133+ (CD133 [1]; UMSCC-11B, head & neck, listed as anti-CD133 scFV) | % Positive Cells, CD133+ (CD133 [1]; UMSCC-11B, head & neck, listed as anti-CD133scFV-FITC) | levels of CD133 expression (CD133 [1]; various carcinoma lines of Table 1) | Western blot band with hybridoma supernatant (CD133 [2]) |
| --- | --- | --- | --- | --- | --- | --- | --- | --- | --- | --- | --- | --- |
| No. 11 scFv: soluble scFv of the Hybridoma Clone 7 antibody expressed in E. coli Top10F', SEQ ID NO:58; also used FITC-labeled (protein, optionally FITC-labeled; scFv polypeptide) scFv: MDIVLSQSPAIMSASPGEKVTISCSASSSVSYMYWYQQKPGSSPKPWIYRTSNLASGVPARFSGSGSGTSYSLTISSMEAEDAATYYCQQYHSYPPTFGAGTKLELKSSGGGGSGGGGGGSSRSSLEVKLVESGPELKKPGETVKISCKASGYTFTDYSMHWVNQAPGKGLKWMGWINTETGEPSYADDFKGRFAFSLETSASTAYLQINNLKNEDTATYFCATDYGDYFDYWGQGTTLTVSS | 4.0% | 62.8% | 80.0% | 4.0% | 5.2% | 7.1% | 5.9% | 4.2% | 6.0% | 6% | 4-7.1% | – |
| Hybridoma Clone 7: monoclonal antibody produced by Hybridoma Clone 7 that specifically binds to human CD133 (antibody, V domains shown) VL: DIVLSQSPAIMSASPGEKVTISCSASSSVSYMYWYQQKPGSSPKPWIYRTSNLASGVPARFSGSGSGTSYSLTISSMEAEDAATYYCQQYHSYPPTFGAGTKLELK VH: LEVKLVESGPELKKPGETVKISCKASGYTFTDYSMHWVNQAPGKGLKWMGWINTETGEPSYADDFKGRFAFSLETSASTAYLQINNLKNEDTATYFCATDYGDYFDYWGQGTTLTVSS | – | – | – | – | – | – | – | – | – | – | – | distinct band corresponding to the predicted molecular weight of CD133 |
